According to paper PMC3790847:

Target: T1, Fur (ferric uptake regulator) (Shewanella piezotolerans WP3) (UniProt B8CQZ2)
T1 sequence: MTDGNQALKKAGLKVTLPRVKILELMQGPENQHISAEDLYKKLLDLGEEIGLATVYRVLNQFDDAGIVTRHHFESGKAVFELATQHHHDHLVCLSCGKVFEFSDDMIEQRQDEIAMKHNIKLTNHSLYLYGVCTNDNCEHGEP
Assay: EMSA
Details: 40 mM KCl, 12.5 mM Tris pH 7.5, 125 uM MnCl2, 1.25 mM MgCl2, 5% glycerol, 0.5 mM DTT, 0.01% BSA, 50 ug/ml salmon sperm DNA, 20 C, 30 min; ~0.2 pmol probe and …

Sequence | binding
ATAGAGGGGAGCCATAACGGCGAAGGTTACATGGAACTCACCGGCTACTAAGCCGTAACAACCACTCAAACATAAGCTTTATGAAGTATGTAATTGCATTCAAAAAGCAATAGATAAGAATAATTATCATTTACTAAGCTTATGAATATCTTGGATATTTAATGTAGCGCAAGCTAACATTTCGAGTGGACAAAATTCAAACAAGCTTCTAGTCTTTATTGGTAAATTTGAGAACTAGATCACCCCCTAAAAGTTGATCTTGGTCGAT (double strand) [napD (swp4456) promoter] | binds
CAGGCTGTAATTGACCTTTTTACACGCAGCAAATAACTGCTTTTTTTGCTGTTCATCAAGTAAAGAGATGAGGGTTCCCGGCACGTTACATTCCTTGGCTTGATAATAATCAAGAGGTGAAGTTTGCTATTCAAGATATAGTGCAAATGATAATCATTATTAATAAAAGTGCAACATATAAAGGGAGCGATTATGGAAGCGATAAGTCCTGCTTTTCGATGGATAAGCGTGATAGCGA (double strand) [Crp-like regulator (swp3806) promoter] | binds
TGACCTTAATCACATAAAGCATCTAAAACACCTGCTAAAAATTACGCTGTTAGTTAGCCTTAGAGGTGGAAATAAAATTCCACACACTAAATAAGGGTAAATGAGATTTGTTCTCAAACTAATTCCCTTTTTAGTGATGATTAAAAAACTATTGCAGGGACAAAAATGATGAAATTTTTCAACTTAAGCGCGACTTCAAAAGCGCTACTTACGGCAGGGGTGCTTTCGTTAGCAGTTTCTGGCTGTAGTGGC (double strand) [omcA (swp3277) promoter] | binds
TTATTACGTGCAATAAGAAGCTTTAACTTTGCTGAGATAAACAATGAAAGAGGAGTTTCTATCAAACTTTAAATGAATGATACAGCTTGATTTGTTTGTGATCTTTTTGCTTTTGATGGTTACAGGTTTGTTAGTGTTGTGCGCGAGTTCACATTGACAATGTAAATACACGTAAAGAAGTATGAATAAAAACAATTCTCATTTATATTGCAGCCAATTATTAAATGTAGCTTTCATTTTTGGGGTTGGTTATGTCTTTTCAGGCGTCTT (double strand) [TonB receptor (swp5150) promoter] | binds
